The data set concerns the target nucleolin (NCL) (Homo sapiens, UniProt P19338 1-710). Description: EMSA.

Chain of nucleolin (NCL) (P19338 whole entry): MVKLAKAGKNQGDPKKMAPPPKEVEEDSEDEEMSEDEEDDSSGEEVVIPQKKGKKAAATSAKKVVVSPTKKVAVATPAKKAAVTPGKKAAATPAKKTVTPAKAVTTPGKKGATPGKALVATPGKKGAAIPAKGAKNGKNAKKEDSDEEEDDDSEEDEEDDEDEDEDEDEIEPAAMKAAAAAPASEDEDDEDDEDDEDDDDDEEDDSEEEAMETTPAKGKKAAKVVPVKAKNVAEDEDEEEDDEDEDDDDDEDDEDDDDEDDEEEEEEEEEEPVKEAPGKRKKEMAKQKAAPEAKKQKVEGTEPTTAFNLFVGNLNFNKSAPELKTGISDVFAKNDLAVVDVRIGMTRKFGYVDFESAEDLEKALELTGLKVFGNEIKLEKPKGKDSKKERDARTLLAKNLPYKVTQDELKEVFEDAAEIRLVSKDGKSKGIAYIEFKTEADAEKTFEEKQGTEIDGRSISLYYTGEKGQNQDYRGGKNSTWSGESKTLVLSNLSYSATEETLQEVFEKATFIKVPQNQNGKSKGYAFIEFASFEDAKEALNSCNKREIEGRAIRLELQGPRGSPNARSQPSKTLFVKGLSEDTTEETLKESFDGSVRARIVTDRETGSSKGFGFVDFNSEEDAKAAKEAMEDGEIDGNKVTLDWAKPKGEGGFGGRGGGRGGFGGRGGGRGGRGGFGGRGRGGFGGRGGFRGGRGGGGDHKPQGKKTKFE

Turning to GGGTTTGGGTTTGGGTTTGGGTTTGGG (structured_DNA) [(GGGTTT)5], the binding result is on record as “binds”.

B1: hTert 1-12 (structured_DNA)
DNA: AGGGGAGGGGCTGGGAGGGCCCGGAGGGGGCTGGGCCGGGGACCCGGGAGGGGTCGGGACGGGGCGGGGT
Take B1: the binding result is “binds”.
The value for TGGGGAGGGTGGGGAGGGTGGGGAAGG (structured_DNA) [c-myc] was “binds”.
The result for GGGTTTGGGTTTGGGTTTGGGTTTGGGTTTGGGTTT (structured_DNA) [(GGGTTT)6] reads “binds”.
The result for GGGTTTGGGTTTGGGTTTGGGTTTGGGTTTGGGTTTGGGTTTGGGTTT (structured_DNA) [(GGGTTT)8] reads “binds”; that for GGGTTTGGGTTTTTTTTTGGGTTTGGG (structured_DNA) [n5M3], “binds”.
Turning to AGGGGGCTGGGCCGGGGACCCGGGAGGGGTCGGGACGGGGCGGGGT (structured_DNA) [hTert 5-12], the binding result was “binds”.
The result for GGGTGGGTGGGTGGG (structured_DNA) [111] reads “binds”.
In the case of GGGTTAGGGTTAGGGTTAGGG (structured_DNA) [(GGGTTA)4], the binding result is “binds”.
With GGGTTTGGGTTTGGGTTTTTTTTTGGG (structured_DNA) [n5M4], the binding result is “binds”.
In the case of AGGGGCGGGCGCGGGAGGAAGGGGGCGGGAGCGGGGCTG (structured_DNA) [bcl-2], the binding result was “binds”.
Take GGGTTAGGGTTAGGGTTAGGGTTAGGGTTAGGGTTA (structured_DNA) [(GGGTTA)6]: the binding result is listed as “binds”.

B2: (GGGTTA)8 (structured_DNA)
DNA: TCGAGGGTTAGGGTTAGGGTTAGGGTTAGGGTTAGGGTTAGGGTTAGGGTTAC
With B2, the binding result is given as “binds”.
Take GGGTTTTTTTTTGGGTTTGGGTTTGGG (structured_DNA) [n5M2]: the binding result is listed as “binds”.
Turning to GGGTTTGGGTTTGGGTTTGGG (structured_DNA) [(GGGTTT)4 = 333], the binding result was “binds”.

The record behind these values is paper PMC5466061.
